To fix the notation:
B1: phage clone 7E3 (scFv on phage) (scFv, V domains shown)
VH: QVQLVESGGGLVNPGGSLRLSCAVSGFTSSGFSINWVRQAPGKGLEWVSSISGIGDSIFYADSVKGRFTISRDNAKNLVFLQMNSVKAEDTAVYYCVRDKWGWGTYSLFDYWGQGTLVTVSS
VL: QAVLTQPPSASGTPGQRVTISCSGSSSNIASNVVSWYQQLPGTAPKVLIYSNNRRPSGVPDRFSGSKSGASASLAISGLQSDDETHYYCAAWDDSLKGPVFGGGTQLTVL
B2: phage clone 6A6 (scFv on phage) (scFv, V domains shown)
VH: EVQLVESGGGVVQPGGSLRLSCAASGFTFDDYAMHWVRQAPGKGLEWVSLISGDGGSTYYADSVKGRFTISRDNSKNSLYLQMNSLKASDTAMYYCARPRWGRYSSSWPFDYWGQGTLVTVSS
VL: QSALTQPASVSGSPGQSITISCTGTSSDVGTYNYVSWYQQHPGKAPKLMIYDVTDRPSGISNRFSGSKSGNTASLTISGLQAEDEGNYYCSSYTSNRSWVFGGGTKLTVL
B3: phage clone 3B3 (scFv on phage) (scFv, V domains shown)
VH: EVQLVQSGGGLVKPGGSLRLSCAASGFTFSSYSMNWVRQAPGKGLEWVSSISSSSSYIYYADSVKGRFTISRDNAKNSLYLQMNSLRAEDTAVYYCARVRPPYGMDVWGQGTLVTVSS
VL: NIQMTQSPSSVSASVGDTVTISCRASQGISNWLGWYQQRPGEAPKLLIYAASHLQSGVPSRFSGSGSGTDFVLTITSLQPEDFATYYCQQSNSFPLAFGGGTKLEIK
B4: phage clone 11B7 (scFv on phage) (scFv, V domains shown)
VH: QVQLVQSGGGVVQPGRPLRLSCAASGFNLGSYAMSWVRQAPGKGLEWVSAISGSGGSTYYADSVKGRFTISRDNSKNTLYLQMNSLRAEDTAVYYCAKILGPGNLNYYYYYGMDVWGQGTTVTVSS
VL: SSELTQDPAVSVALGQTVRITCQGDSLRNSYASWYQQKPGQAPVLVIYGNNNRPSGIPDRVSGSRSGNTASLTITGAQAEDEADYYCNSRDSSGNHVVFGGGTELTVL

Sequence of hTEM8-his antigen (hTEM8 containing 6 His tags) (human) (Q9H6X2 33-321 limits assumed): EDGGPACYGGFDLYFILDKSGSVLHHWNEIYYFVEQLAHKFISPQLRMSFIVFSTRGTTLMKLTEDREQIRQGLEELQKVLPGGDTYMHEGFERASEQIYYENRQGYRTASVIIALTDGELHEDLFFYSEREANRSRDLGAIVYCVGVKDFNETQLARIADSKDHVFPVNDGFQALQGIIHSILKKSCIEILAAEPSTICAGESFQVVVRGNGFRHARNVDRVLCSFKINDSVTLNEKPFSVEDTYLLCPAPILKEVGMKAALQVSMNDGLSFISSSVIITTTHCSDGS

This assay has as its target hTEM8-his antigen (hTEM8 containing 6 His tags) (human) (UniProt Q9H6X2). Description: phage supernatant ELISA on hTEM8-his.
Consider B1, for which the hTEM8-his ELISA (OD450) is 2.5 OD450.

Molecule B2 yielded a hTEM8-his ELISA (OD450) of 2.67 OD450.

As to B3, the hTEM8-his ELISA (OD450) came out at 2.86 OD450. The figure for B4 is 2.43 OD450.

Values taken from patent EP4722246A1, “TEM8-TARGETED ANTIBODY OR ANTIGEN-BINDING FRAGMENT THEREOF, AND USE THEREOF” (Inxmed (Nanjing) Co., Ltd., priority 2023, dated 2024).
